Data reported in patent publication US20130164214A1.

What was measured:
CD20 = CD20 (UniProt P11836); experiment: cell-based or functional assay
[1] = target: CD74 (invariant chain, Ii) (human) (UniProt P04233); experiment: cell-based or functional assay
Sequence of CD74 (invariant chain, Ii) (human) (P04233 whole entry, change not shown): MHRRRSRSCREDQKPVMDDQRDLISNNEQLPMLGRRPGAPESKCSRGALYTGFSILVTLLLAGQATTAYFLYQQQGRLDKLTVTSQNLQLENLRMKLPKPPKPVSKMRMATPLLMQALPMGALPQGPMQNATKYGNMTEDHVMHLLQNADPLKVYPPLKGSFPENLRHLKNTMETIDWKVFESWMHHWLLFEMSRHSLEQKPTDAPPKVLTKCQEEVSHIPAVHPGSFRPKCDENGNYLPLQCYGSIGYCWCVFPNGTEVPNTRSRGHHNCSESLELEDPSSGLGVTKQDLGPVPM

Sequence of CD20 (P11836 whole entry): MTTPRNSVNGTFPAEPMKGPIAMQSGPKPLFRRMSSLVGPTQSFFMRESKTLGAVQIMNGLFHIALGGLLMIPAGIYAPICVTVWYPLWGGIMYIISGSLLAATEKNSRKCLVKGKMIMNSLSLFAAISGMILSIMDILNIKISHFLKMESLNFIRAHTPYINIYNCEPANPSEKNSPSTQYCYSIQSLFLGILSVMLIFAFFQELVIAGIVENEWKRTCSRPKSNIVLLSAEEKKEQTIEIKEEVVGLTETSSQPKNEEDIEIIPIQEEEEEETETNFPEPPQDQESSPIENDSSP

## 20-Rap (hA20 IgG-AD2 with four copies of Rap-DDD2)
CD20
  in vitro cytotoxicity EC50, Daudi and Ramos NHL cell lines: 100 pM
  in vitro cytotoxicity EC50, Jeko-1 mantle cell lymphoma line: 20 pM

## milatuzumab (humanized anti-CD74 LL1 antibody)
[1]
  reduction of live B cells in human PBMCs after 3 days with antibody, flow cytometry: 22%
  reduction of live mDC2 in human PBMCs after 3 days with antibody, flow cytometry: 53.8%
